From publication PMC10509167, “Identification and characterization of endo-α-, exo-α-, and exo-β-D-arabinofuranosidases degrading lipoarabinomannan and arabinogalactan of mycobacteria” (Nature Communications, 2023) come the findings set out here.

Substrate in series [1]: O=[N+]([O-])c1ccc(O[C@@H]2O[C@H](CO)[C@@H](O)[C@@H]2O)cc1
Put plainly: purified protein. Type of series: biochemical, Microbacterium arabinogalactanolyticum. The conditions noted are these: 37 °C, 50 mM sodium phosphate pH 6.0.

Substrate in series [2]: O=[N+]([O-])c1ccc(O[C@H]2O[C@H](CO)[C@@H](O)[C@@H]2O)cc1
The experiment in a line: purified protein. Type of series: biochemical, Microbacterium arabinogalactanolyticum. The note with it: 37 °C, 50 mM sodium acetate pH 5.5.

Broadly, the Km is the substrate concentration at which the rate is half of its maximum. By kcat is commonly meant the maximal rate divided by the concentration of active sites.

B1: ExoMA2 (MIAR_33170) (Microbacterium arabinogalactanolyticum) (protein)
chain: SRRARRIPHTAESVAFPLGGIGTGNVSLGARGELRDWEFENLPDKGRLNPRSFFAIHAAPQGGPSATRVLEARSSGRHDRDAGYGFDELAGLPRLDSAGLHGEYPVVDIDFTDATLPVTVSLHAFTPLVPLDADASGIPAAVLRYRVVNPGDAPVTVTVVGSMSHTAGRGAPGPDAPWGMRGTQSVRWRESDGIRGLDFDIDLDHDDPGYGTMSLTTTDSSTTVKPQWVTSYWPDGARLFWNDLADDGLLAPEARLTLEDKPRGLFAERDADPDAPALTEEQMLAKLPRVRTGSLGIVHTLAPGEERDFEFVLAWSFPNRRRGWHGHIIFDDALEDGAPDLRDELGPIVRNHYAVRWPDAWAAAAQLHRDLPALEGATDAFVEELYGGSLDPVLADAVGANIAALRSTTCFVLESPTPELGDGPVFAAWEGSFDHGGSCEGTCTHVWSYAQTAAWLFPGLERSARRAEYLLETDESGAQKFRGNRIFGAPRWFIGPAVDGQLGTFLRLHREWRFCGDDEFLRELWPAAARTLDYAAREWDHDGDGLLDGEMHNTYDIEFHGVEPLSNIIHLAALRAGVRMAGHLGDTARAQEWALRADHVAAAIEGVLWNGEYYRQVIDDVDAHRYQYGDGVLSDQLLGQFHAFLGGLGYLLPEAHVRSALDAIVQHNHRGDLRDHESTQRVYALNDEGGLLLASWPEGGRPALPFVYADEVWTGIEHQVAVSLLFAGRYDDALRIERTLRARYDGAHRSPWNEIECGNHYARSLASWGLLIGASGAQWDAGARTLSFDPVLPGDARFLFTTATGWGGVEIGDDVITLRLHGGALDLDELRLRGEVAGRGIHLDAGETRTLTLT
notes: dimer
Regarding B1, in series [1], the Michaelis-Menten constant (Km) was 2730 µM and the turnover number (kcat) was found to be 12.0 s⁻¹.

B2: ExoMA1 (MIAR_33200) (Microbacterium arabinogalactanolyticum) (protein)
chain: MPDLNSIAALRQVQTRSISPENFDGTAGGGGRATEGTGADCARDLGPGWKISPSVDIKAGETFELASIEGAGKITHIWITTHTDNWRTLILRAFWDGADEPAVEVPYGDFFCNGWGVFAQVNSQAIAANPHGGFNSYWPMPFRDGARLTIENTSVVDVRVYYQVTYEIGGDHSNDAYFHAQWRRSNPLEELTPHVILEGIEGEGHYVGTYIAWGVNSNGWWGEGEIKFYLDDDTDHPTICGTGTEDYFGGAWNFDIPGKGYTEFSTPYLGMPQVIRPDGLYVSQQRFGMYRWHLQDPIHFATGIPKVDIQALGWRSGWRYLPLRDDIASTAMFYLDRPTARRPKSPSADDMEVHLGTAPVPDLGATPPRV
notes: dodecamer
On to B2, for which, in series [2], the Km amounted to 2550 µM and the kcat turned out to be 44.4 s⁻¹.
